{"source": "patent US20030013150A1", "molecular_target": "plasminogen", "assay": "cell-based or functional assay"}
{"substance": "Bacteriophages which harbored K2S on gpIII (K2S-?) (from UniProt P00750 209-562)", "values": [{"measurement": "fibrinogen-dependent enzymatic activity (amidolytic assay, plasminogen and S-2251)", "value": "< 0.25", "unit": "IU/ml"}]}
